In PMC3811445:
pKd: −log10 of the molar value.

Target: E. coli EF-G (Δ529SNP531) (E. coli) (UniProt P0A6M8)
Test: ITC; performed as described previously (ref 11); conditions not given here

## FusB (natural protein)
  pKd: 5.24
